The values that follow come from US20100075326A1.

The target of test [1] is high affinity (HA) LFA-1 I domain K287C/K294C, YS2H bait fused to Aga2 with C-terminal FLAG tag (yeast) (UniProt P20701). The experiment in a line: predicted from YS2H (flow cytometry of Myc and FLAG tags, Langmuir equation).
Test [2] concerns the target LFA-1 I domain L295P, YS2H bait fused to Aga2 with C-terminal FLAG tag (yeast) (UniProt P20701). The description is as above.
The target in test [3] is LFA-1 I domain F265S, YS2H bait fused to Aga2 with C-terminal FLAG tag (yeast) (UniProt P20701). Described as above.
For test [4] the target is unchanged. The test is described as above. The source holds these as a separate data set.
Test [5] deals with high affinity (HA) LFA-1 I domain K287C/K294C, YS2H bait fused to Aga2 with C-terminal FLAG tag (yeast) (UniProt P20701). The experiment in a line: YS2H: I domain bait on the yeast surface (Aga2 fusion, Flag tag), secreted scFv prey with Myc tag; flow cytometry with anti-Myc antibody, mean ± standard error of three measurements; Flag (bait) MFI 85±7.
The target of test [6] is LFA-1 I domain F265S, YS2H bait fused to Aga2 with C-terminal FLAG tag (yeast) (UniProt P20701). The experiment in a line: YS2H as in the row 'Myc', but labelled without metal ions with 10 mM EDTA (row 'Myc+ EDTA'); Flag (bait) MFI 52±8.
Test [7] addresses wild-type LFA-1 I domain, YS2H bait fused to Aga2 with C-terminal FLAG tag (yeast) (UniProt P20701). Kind of test: YS2H: I domain bait on the yeast surface (Aga2 fusion, Flag tag), secreted scFv prey with Myc tag; flow cytometry with anti-Myc antibody, mean ± standard error of three measurements; Flag (bait) MFI 79±1. (In general: A flow cytometer gives signals particle by particle.)

Test [8] addresses LFA-1 I domain F265S, YS2H bait fused to Aga2 with C-terminal FLAG tag (yeast) (UniProt P20701). The experiment in a line: YS2H: I domain mutant bait on the yeast surface, secreted scFv AL-57 prey with Myc tag; flow cytometry with anti-Myc antibody, 10 mM MgCl2, mean ± standard error of three measurements; Flag (bait) MFI 52±8.
The target of test [9] is LFA-1 I domain L295P, YS2H bait fused to Aga2 with C-terminal FLAG tag (yeast) (UniProt P20701). The experiment in a line: YS2H as in the row 'Myc', but labelled without metal ions with 10 mM EDTA (row 'Myc+ EDTA'); Flag (bait) MFI 40±2.
Test [10] has the same target. The experiment in a line: YS2H: I domain mutant bait on the yeast surface, secreted scFv AL-57 prey with Myc tag; flow cytometry with anti-Myc antibody, 10 mM MgCl2, mean ± standard error of three measurements; Flag (bait) MFI 40±2.
The target of test [11] is LFA-1 I domain L295P, soluble, refolded from E. coli (UniProt P20701). Kind of test: SPR (Biacore), I domain injected over scFv AL-57 chip, 10 mM MgCl2. In general terms: Surface plasmon resonance follows binding to a sensor surface in real time, without labels.
For test [12], the target named is LFA-1 I domain F265S, soluble, refolded from E. coli (UniProt P20701). The test is described as above.
In test [13] the target is high affinity (HA) LFA-1 I domain K287C/K294C, soluble, refolded from E. coli (UniProt P20701). The description is as above.
The target of test [14] is wild-type LFA-1 I domain, YS2H bait fused to Aga2 with C-terminal FLAG tag (yeast) (UniProt P20701). Kind of test: YS2H: I domain bait on the yeast surface (Aga2 fusion, Flag tag), secreted scFv prey with Myc tag; flow cytometry, mean ± standard error of three measurements; paragraph 71 says goat polyclonal anti-murine antibody was the primary antibody for detecting TS1/22; Flag (bait) MFI 40±0.3.

For test [15], the target named is high affinity (HA) LFA-1 I domain K287C/K294C, YS2H bait fused to Aga2 with C-terminal FLAG tag (yeast) (UniProt P20701). The experiment in a line: YS2H: I domain bait on the yeast surface (Aga2 fusion, Flag tag), secreted scFv prey with Myc tag; flow cytometry, mean ± standard error of three measurements; paragraph 71 says goat polyclonal anti-murine antibody was the primary antibody for detecting TS1/22; Flag (bait) MFI 44±2.

For test [16], the target named is the wild-type and HA I domain. Kind of test: predicted from YS2H (flow cytometry of Myc and FLAG tags, Langmuir equation).

pKd: −log10 of the molar value. Like-named read-outs stand apart in the source and are kept apart here.

For orientation: pKd means the negative decadic logarithm of the Kd, by convention in mol/L.

Regarding “scFv AL-57, secreted YS2H prey with C-terminal Myc tag”, the negative logarithm of the Kd (pKd) in test [1] was 6.82; in test [2], 6.36; in [3], 6.62; in test [4] it was 6.63 to 6.83. Moreover, the MFI (anti-Myc) in test [5] stood at 80; in test [7], 12; in test [8], 32; in [10] it was 13. In addition, the MFI (anti-Myc, with EDTA) amounted to 15 in test [6] and 10 in test [9].
“scFv AL-57, soluble, refolded from E. coli”: the pKd in [11] is 6.61; in [12], 7.80; in test [13], 7.49.
As to “scFv TS1/22, secreted YS2H prey with C-terminal Myc tag”, the MFI (row 'Myc') in test [14] amounted to 38; in test [15], 40. For the same substance, the pKd in test [16] is 6.63 to 6.83.
